Columns and labels:
[1] = molecular target: Stoffel fragment of Thermus aquaticus DNA polymerase I fused to p3, displayed on phage (pHEN1-Stoffel) (Thermus aquaticus; filamentous bacteriophage) (UniProt P19821); assay: phage ELISA, plate coated with anti-Taq antibody, anti-M13-HRP detection; 10^7 phage particles of clone 10 (selected leader)
[2] = molecular target: Stoffel fragment of Thermus aquaticus DNA polymerase I fused to p3, displayed on phage (pHEN1-Stoffel) (Thermus aquaticus; filamentous bacteriophage) (UniProt P19821); assay: phage ELISA, plate coated with anti-Taq antibody, anti-M13-HRP detection; 10^9 phage particles of the pelB leader phagemid pHEN1-Stoffel

Chain of UniProt P19821 (P19821 290-832 limits assumed): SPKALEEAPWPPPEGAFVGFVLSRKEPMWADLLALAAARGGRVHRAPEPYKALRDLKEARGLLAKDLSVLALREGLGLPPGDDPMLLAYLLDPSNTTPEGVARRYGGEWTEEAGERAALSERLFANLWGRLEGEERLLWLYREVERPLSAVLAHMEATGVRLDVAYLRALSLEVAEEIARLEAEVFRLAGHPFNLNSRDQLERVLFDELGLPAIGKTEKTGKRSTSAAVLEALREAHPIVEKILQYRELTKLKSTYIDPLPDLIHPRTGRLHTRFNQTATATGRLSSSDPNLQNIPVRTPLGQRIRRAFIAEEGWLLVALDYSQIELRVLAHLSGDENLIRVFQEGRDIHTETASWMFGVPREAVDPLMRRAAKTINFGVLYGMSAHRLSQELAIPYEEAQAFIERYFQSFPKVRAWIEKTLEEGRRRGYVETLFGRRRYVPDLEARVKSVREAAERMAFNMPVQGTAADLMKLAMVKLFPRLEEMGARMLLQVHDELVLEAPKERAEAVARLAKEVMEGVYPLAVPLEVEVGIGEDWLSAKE

signal to noise ratio [1]: 1.47
signal to noise ratio [2]: 1.46
Substance: anti-Taq antibody (Taqstart, Clontech)
